# Source: CN111690058A
# Molecular target: S蛋白RBD-His (319Arg-532Asn) (2019-nCoV (SARS-CoV-2)) (UniProt P0DTC2)
# Assay: BLI (Fortebio), RBD-His on Anti-Penta-HIS sensor, antibody in solution
substance,measurement,value
对照抗体CR3022 (antibody),Kd,2.42 nM
same,koff,0.000278 s⁻¹
same,kon,115000 M⁻¹ s⁻¹
